Data taken from the supplement of paper PMC5998384.

What was measured:
HeLa Kyoto [1] = assay: solubility in G1/S (NP-40 vs SDS abundance) (log2 ratio); higher = more soluble; conditions: cell cycle stage: G1/S
HeLa Kyoto [2] = assay: thermal stability score vs G1/S (z-score of summed log2 fold changes over temperatures); higher = more thermally stable than in G1/S
HeLa Kyoto [3] = assay: solubility change mitosis vs G1/S (difference of NP-40 vs SDS log2 ratios) (log2 ratio difference); higher = more soluble in mitosis
HeLa Kyoto [4] = assay: melting temperature (median over replicates), in situ; higher = more thermally stable
[5] = cell cycle stage: early G1 (4.5 h after nocodazole release)
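For melting temperature (median over replicates), in situ in this document: HeLa Kyoto cells synchronized by double thymidine or nocodazole block, proteins quantified by TMT10plex mass spectrometry, three independent biological replicates.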
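For solubility change mitosis vs G1/S (difference of NP-40 vs SDS log2 ratios) in this document: synchronized HeLa Kyoto cells (double thymidine block for G1/S, nocodazole release for mitosis), protein amounts in NP-40 versus SDS lysates quantified by mass spectrometry, three biological replicates.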
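For solubility in G1/S (NP-40 vs SDS abundance) in this document: HeLa Kyoto cells arrested at G1/S by double thymidine block, proteins quantified by TMT10plex mass spectrometry in mild NP-40 versus SDS extracts, three biological replicates.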
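For thermal stability score vs G1/S (z-score of summed log2 fold changes over temperatures) in this document: synchronized HeLa Kyoto cells, proteins quantified by TMT10plex mass spectrometry, three biological replicates, mitosis taken 0.5 h after nocodazole release, G1/S directly after double thymidine block.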

Sequence of ZMAT2 (chain, as listed by the source): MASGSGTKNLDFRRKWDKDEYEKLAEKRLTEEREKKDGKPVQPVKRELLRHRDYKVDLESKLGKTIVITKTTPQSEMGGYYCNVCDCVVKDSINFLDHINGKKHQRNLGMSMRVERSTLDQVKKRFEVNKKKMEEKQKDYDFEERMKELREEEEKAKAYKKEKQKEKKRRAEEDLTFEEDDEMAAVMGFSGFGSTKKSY
Sequence of ZFR (chain, as listed by the source): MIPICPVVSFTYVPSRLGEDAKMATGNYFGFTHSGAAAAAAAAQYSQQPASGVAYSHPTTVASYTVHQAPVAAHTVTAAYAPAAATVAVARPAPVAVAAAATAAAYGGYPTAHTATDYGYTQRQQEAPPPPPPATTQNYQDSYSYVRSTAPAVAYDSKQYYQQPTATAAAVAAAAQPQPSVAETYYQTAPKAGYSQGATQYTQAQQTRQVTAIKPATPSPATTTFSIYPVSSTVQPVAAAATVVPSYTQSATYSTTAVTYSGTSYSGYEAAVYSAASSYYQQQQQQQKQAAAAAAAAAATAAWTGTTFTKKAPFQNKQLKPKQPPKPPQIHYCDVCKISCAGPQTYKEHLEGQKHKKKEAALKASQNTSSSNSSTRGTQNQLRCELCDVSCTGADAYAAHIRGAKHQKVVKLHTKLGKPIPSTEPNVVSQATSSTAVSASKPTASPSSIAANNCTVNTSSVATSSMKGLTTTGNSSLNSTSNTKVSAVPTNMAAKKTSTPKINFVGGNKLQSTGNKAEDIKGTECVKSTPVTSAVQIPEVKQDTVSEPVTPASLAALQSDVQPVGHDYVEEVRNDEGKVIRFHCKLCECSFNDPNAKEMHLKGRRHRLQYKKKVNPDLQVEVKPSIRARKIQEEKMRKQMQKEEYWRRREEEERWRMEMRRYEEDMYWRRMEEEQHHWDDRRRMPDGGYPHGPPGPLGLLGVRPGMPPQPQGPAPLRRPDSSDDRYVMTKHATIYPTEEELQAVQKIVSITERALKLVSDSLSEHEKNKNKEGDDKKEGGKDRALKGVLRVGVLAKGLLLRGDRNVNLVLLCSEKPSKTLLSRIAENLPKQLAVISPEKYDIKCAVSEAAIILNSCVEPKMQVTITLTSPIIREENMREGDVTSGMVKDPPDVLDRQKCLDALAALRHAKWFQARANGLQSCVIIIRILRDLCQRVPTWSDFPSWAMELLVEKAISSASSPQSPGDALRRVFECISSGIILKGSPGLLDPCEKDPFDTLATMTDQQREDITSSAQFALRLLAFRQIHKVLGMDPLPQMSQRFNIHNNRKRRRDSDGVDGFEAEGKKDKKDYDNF

Substance	solubility in G1/S (log2) (HeLa Kyoto [1])	thermal stability score (HeLa Kyoto [2]; [5])	thermal stability score (HeLa Kyoto [2]; cell cycle stage: mitosis)	solubility change mitosis (log2) (HeLa Kyoto [3])	melting temperature (HeLa Kyoto [4]; cell cycle stage: G1/S) [°C]	melting temperature (HeLa Kyoto [4]; cell cycle stage: mitosis) [°C]
YLPM1	-0.708	0.777	0.487	0.495	48.3	48.3
ZFC3H1	-0.247	0.428	0.858	0.0411	49.3	49.9
ZFR	-0.167	0.655	-0.928	0.103	52.4	51.9
ZMAT2	-0.324	1.39	-4.93	0.427	57.8	54.3
ZMYM4	-0.601	1.6	3.25	0.281	46	49.4
ZNF24	-0.217	1.15	1.78	0.265		52.2
